# Measurements reported in US20260256840A1.
# Experiments:
# [1] = target: NY-ESO TCR with the D111K modification in the TRBC constant region (human); assay: flow cytometry of CD8+ T cells, FITC-BW242/412 against PE NY-ESO dextramer (FIG. 9)
# [2] = target: unmodified NY-ESO TCR (wild-type TCR beta constant domain) (human); assay: as above
# [3] = target: HIT receptor with the D111K mutation in the TCR beta constant region (human); assay: anti-TCR bead negative selection of T cells, cell count and flow cytometry (FIG. 7)
# [4] = target: NY-ESO TCR with the D111K modification in the TRBC constant region (human); assay: anti-TCR negative selection of T cells, flow cytometry
substance,measurement,setting,value
BW242/412 anti-TCR antibody,% of the NY-ESO dextramer-positive population not stained by the anti-TCR antibody,[1],60%
same,% of the NY-ESO dextramer-positive population not stained by the anti-TCR antibody,[2],0%
same,% recovery of HIT+ cells after BW242/412 negative selection (cells not bound by the antibody),[3],57.7%
same,% recovery post purification (BW242/412 negative selection),[4],80%
